According to the supplement of paper PMC12042874:
± gives the uncertainty stated by the source.

Experiment: amyloid nucleation score (Sup35N fusion, yeast selection) (log enrichment); library NNK1; higher = more nucleation; inactive = no reads after selection
Procedure, shortened: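 Output and input plasmid inserts were sequenced by Illumina after psi-negative yeast carrying Sup35N fused to peptides of 20 random codons had been induced 24 hours with 100 μM copper sulfate and grown 7 days at 30°C on medium lacking adenine and uracil. The nucleation score is the DiMSum log enrichment of output over input reads, centred on the mode score of non-aggregating sequences. Sequences with under 100 input reads were excluded.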

Substance	amyloid nucleation score
LLVLMYNCFAIYKNWIF	0.209 ± 1.2
LLVSFTENNRPDLILQSHLM	-1.2 ± 1.2
LLVSTVRVNGQI	-0.016 ± 0.42
LLWDCVNLEGIEQFYCPHSD	0.382 ± 0.44
LLYIRVADSRPGDLRWLSEV	-0.106 ± 0.5
LLYYASVLRMKGTECPDGGD	-0.856 ± 2.4
LMGMRPFELHRRRGHGHVLG	-0.019 ± 0.64
LMGSRAGSLTQLIESNTKER	-0.748 ± 1.1
LMHASHFFVGKMFLL	0.266 ± 0.28
LMKYWYDVHRNESGITSNNI	-1.26 ± 0.42
LMLGKLWFPGMCYESKWELG	-0.181 ± 1
LMLTGRD	-0.462 ± 1.2
LMPLLS	0.025 ± 0.36
LMQVVGTVGGRQCTVGWFGV	-0.523 ± 0.66
LMWDIWVSYGGAKMSDWSKG	-0.225 ± 0.31
LMWVNLTSVFVRMD	0.14 ± 0.31
LMWWGMNDSR	-0.025 ± 0.28
LNFWGACLIHYSWQNTIVLV	2.28 ± 0.16
LNLTCDHSPSYLLIFFLMSI	0.719 ± 0.2
LNNSGVTTICLAGRVTFCTD	6.55 ± 0.075
LNRRLGDVEPIYAGLTSQQS	0.313 ± 0.3
LNRVEYS	6.843 ± 0.068
LNSAVDMGCFVVNLYMLCIY	4.22 ± 0.059
LNTAQI	0.512 ± 0.29
LNTFTVLMLWMLLQNVAFIL	-1.37 ± 2.1

Substance	amyloid nucleation score
LNVIQPSWDRNFHFEVRFGH	7.942 ± 0.061
LNVRGITIKLCHFRRIWYAQ	-1.25 ± 0.83
LNYDLWTKILNDVVVVCNRF	-0.185 ± 0.4
LPCLSMKVLDTNYNLPCSKN	-0.458 ± 0.32
LPEEDG	inactive
LPKLICIKRASLFNPFLDLM	0.056 ± 0.24
LPNSMLSSGLGWSSINFF	1.16 ± 0.7
LPYTHFGDDLIGITQDGLRV	-0.035 ± 0.43
LQASLGNDPSSVRVSSRGNW	-0.468 ± 0.54
LQCSCLTVWLQNRPDQLSPS	0.1 ± 0.73
LQNIFLKACDWLGCWDVDVM	-0.149 ± 0.93
LQPLLISIKRRFLHYVSQNM	-0.073 ± 0.66
LQQMIRRLVLRFMAATAL	0.14 ± 0.37
LQWEVSSLNVLRFPRNMERC	0.289 ± 0.4
LRAPGTMVDRRCRGVWK	0.356 ± 0.85
LRCTCVECQWKRCESTLGGG	-1.02 ± 2.7
LRDDRFLMKLHYKKQDSSCV	0.324 ± 0.53
LREFPFYFTISLRITLFMSL	-0.391 ± 0.23
LRFHEGVLGAMFEGSVCVLE	-0.01 ± 1.5
LRGFRFVAIMLSVYRKVKVD	-0.531 ± 0.34
LRITYMSLVEYG	1.35 ± 0.69
LRLLFLNNSATCLVTHVGNQ	1.38 ± 0.74
LRNHASVPV	0.084 ± 0.4
LRRVRMEWSVVMHGQSENPE	1.2 ± 0.35
LRSSVDLTRGESYNSGKFFN	0.435 ± 0.32

Substance	amyloid nucleation score
LRTMIVLGFSTWDTCIGSES	-0.537 ± 0.28
LRTRDQSGFSAVIYSKNPRA	0.106 ± 0.51
LRTWDSIFYDLMGACGRPWV	-0.521 ± 0.54
LRVCNLFCL	7.912 ± 0.046
LRVHDHDRMSDKMRYCNPFC	1.76 ± 0.42
LRVSYWQDLAVLYLDSPLGL	-0.358 ± 0.87
LRVYHSYFFSWSSTSLLPAG	0.219 ± 0.76
LRYDVPRWLGFSEWHF	-0.833 ± 1
LRYSIISLAANSKTADG	0.663 ± 0.7
LSAFNWQGDVNLRECYNVY	-0.337 ± 0.63
LSAVPSNGHNNGGYVKSDVS	-0.766 ± 1.4
LSCLRSYVTMHMGIIGYLFN	0.218 ± 0.27
LSDRIAYVVRGC	0.137 ± 0.43
LSFSMGYNYELATTKWSVVF	1.3 ± 0.41
LSGCEGVPLNLMYLDSKMSR	-0.106 ± 0.74
LSHSEDVSQETTIYPNLSCN	-0.533 ± 0.68
LSIEQTLQEAGILDYPSRIT	-0.155 ± 0.35
LSIMVCVICSYMVKMVVTGI	inactive
LSIRNTSTSRITTLFLGL	1.88 ± 0.4
LSKISTVK	-0.778 ± 0.64
LSLSMPYSGVLSELYAIATF	-0.384 ± 0.27
LSMKSHFWKMMFTGNWSYVC	inactive
LSPLDIPTRDLPIFLTFKDT	inactive
LSQFD	1.17 ± 0.41
LSRVKSR	1.29 ± 0.62

Substance	amyloid nucleation score
LSSTDFLGSDVDCFGNCNFL	3.48 ± 0.13
LSSYSTYPCSLTGVRKLNCR	-0.205 ± 0.56
LSTKRYDLHSTPRRPISPSR	1.08 ± 0.41
LSTTKAIALSYLYGQNVKWS	0.092 ± 0.21
LSVGLKVDDEDQRLTYFVTI	-0.614 ± 0.62
LSWIR	-0.09 ± 0.66
LSWSILDGFGGMRCCNINAL	7.155 ± 0.058
LSWVMRYLPYVVFLSYDQPG	-0.723 ± 0.62
LSYLLWGETRIRYWVPASLM	-0.32 ± 0.61
LTEDLNMPSWCKP	0.087 ± 0.7
LTGGLMV	-0.06 ± 0.34
LTMPMKHLRGSPDLRVNGII	-0.502 ± 0.85
LTNNVYSYVWILSSARISIV	0.87 ± 0.22
LTQWPGEGKV	-0.303 ± 0.8
LTRLSNCVLGGSC	-0.512 ± 0.71
LVCVFAWLFP	7.41 ± 0.075
LVILVVFGKRY	-0.139 ± 0.41
LVKNHYHFMANLGCP	0.133 ± 1.4
LVKYKKV	-0.088 ± 0.43
LVLMWLLSGYGAHHFYYAK	0 ± 1.2
LVMYDSL	0.489 ± 0.58
LVRDHRYFEFLASV	0.381 ± 0.39
LVRFSSVLCMQHQREV	0.844 ± 0.55
LVRKKVCTI	0.543 ± 0.36
LVRLTCDMNNFKCQLMFQIF	1.17 ± 0.38

Substance	amyloid nucleation score
LVSMYA	-0.859 ± 0.73
LVSTYGEIQKLHGYLLGMLG	0.002 ± 0.42
LVSVCLGCEVCIFVVYIPNP	inactive
LVTCLLHAG	-1.38 ± 0.58
LVTFRGGYNVDVIMWNNVRR	3.69 ± 0.063
LVVKQLLNSAGCTRPCTVRC	0.164 ± 0.55
LWGLVRSFFDIDNLKGFRTE	-0.257 ± 1.9
LWLAFIIES	0.338 ± 0.25
LWLAVSSVNCHSRHLLVWVT	inactive
LWLHGGARNVDMCKVIFYFG	6.94 ± 0.088
LWLNLILCFQWDPQRKC	4.09 ± 0.11
LWSVCLVTSVQKDAGVLPSG	0.85 ± 0.62
LWYTALINTNACCVIRQDFR	1.04 ± 0.8
LYEDLWFRVREL	1.11 ± 0.63
LYEFRGGTHVGSDFSDVVFV	1.05 ± 0.47
LYFSTYVFLASTSGHLSRFD	-1.36 ± 2.1
LYGSNVVLSVRCGMHTTHCY	2.81 ± 0.24
LYGYCFMLVSRESFLVRSGW	-0.272 ± 0.52
LYIAH	-0.722 ± 0.42
LYKEMTWRNWALSLKMSLRR	0.146 ± 0.5
LYLAQFQGNGDLFSVPPCKV	0.16 ± 0.64
LYLHNHGVWAYFKWCWGVRG	-0.257 ± 0.53
LYLHSWAYVHKNTLNYL	-0.14 ± 0.5
LYNIVCLSDIL	5.88 ± 0.061
LYRSGSPRTGWKLMSSSARR	7.525 ± 0.07

Substance	amyloid nucleation score
LYRSGSVMSSATHYRGAHLC	-0.556 ± 0.77
LYRYEYDCNSLSMS	2.73 ± 0.078
LYSKGIPMACAQVVVYLNER	6.49 ± 0.055
LYSNVRRFVWRGTWMWSRRC	0.969 ± 0.61
LYTYALARCIFISFMDCRMN	0.371 ± 0.26
LYVEMEYSFDYYATKDRHQT	-0.842 ± 1.7
LYVTVGWSLWYGSFAVMVVC	0.026 ± 0.41
LYVYTYYVMVLVGQKR	-0.698 ± 0.93
LYWFAAWLATYIYAW	0.109 ± 0.48
MAACMYSCSMSAVEPLHTYS	0.039 ± 0.67
MACKIIYVTVEGMLRSRS	1.31 ± 0.56
MAEINYWTFSLVLELSARCV	-1.07 ± 1.2
MAGLL	-0.546 ± 1.1
MAKTFRLGGLDCHLNYVVWC	0.113 ± 0.61
MALFSCCCKVYKMG	4.59 ± 0.1
MAPRFIDVMQ	-0.94 ± 0.97
MASLDGFLFNCWLRRLGFRA	-0.397 ± 0.4
MCDGTFCGSSSGHCSASLRH	0.728 ± 0.35
MCFSVG	-0.148 ± 0.4
MCKVHIIEHCSLYWRSCGIW	inactive
MCMSRP	-1.05 ± 0.9
MDACCMFNVWLVSECGFRVH	5.81 ± 0.064
MDALMCYIFFKFE	4.89 ± 0.064
MDIFDTLAWTF	0.632 ± 0.58
MEICNCKDYFKAYRRFSHGS	1.56 ± 0.27

Substance	amyloid nucleation score
MEKLGAPYRFREPGMFVRFF	-1.1 ± 0.62
MEVKISVRFQFVLI	-0.355 ± 0.6
MFCRVVRGGCGSSIGC	0.249 ± 0.79
MFLCNVIYCFFLTYIWLTFF	5.33 ± 0.11
MFQPFPFIHQVDQPFPKSVQ	0.51 ± 0.47
MFRYNCRRAIQIVFMYLWTP	0.779 ± 0.28
MFTIF	0.045 ± 0.3
MFVSDQINYCMSTVAVH	0.201 ± 0.27
MGEATGSGISADDVYVQGEY	4.26 ± 0.069
MGIHIFSGRSCTIFLLPSLY	-0.582 ± 1.2
MGIWSFDTVTRGAMTSVGDA	0.252 ± 0.62
MGLPVLVINNHTAKNGVTRA	0.711 ± 0.73
MGRRRAPRGGFILRYGCPCR	-0.039 ± 0.73
MGVYTCR	inactive
MHEGKRLITGIDWWYVGVCW	0.094 ± 0.9
MHITDGCGG	-0.456 ± 0.3
MHNIASC	0.629 ± 0.48
MHRYF	-0.286 ± 0.37
MHTEFFGGMAHTTLWDVMSP	-0.977 ± 0.77
MHWLDYSFELLDGQ	1.01 ± 0.75
MIAFYIVLLPVIRGYRSGCK	inactive
MIHEVTLY	0.359 ± 0.41
